According to patent publication US9096681B2, “XBP1, CD138, and CS1 peptides” (Dana-Farber Cancer Institute, Inc., priority 2008, dated 2015):

Experiments:
[1] = test system: CD3+ T lymphocytes from normal HLA-A2+ donors; experiment: Phenotypic analysis of peptide-stimulated T cells (flow cytometry); type: cell-based, human; conditions: after peptide stimulation; for percentage of CD8+ T cells: unstimulated cultures 33%; for percentage of CD4+ T cells: unstimulated cultures 64%
Protocol: Peptide-specific CTL (that is, XBP1, CD138, or CS1-peptide-specific CTL) were generated ex vivo by repeated stimulation of CD3^+ T lymphocytes obtained from normal HLA-A2^+ donors with XBP1, CD138, or CS1-peptide-pulsed antigen-presenting cells (APC), either T2 cells or mDC. In brief, T2 cells were washed and resuspended in serum-free AIM-V medium (Gibco BRL) and pulsed overnight at 37° C. with 50 μg/ml of the appropriate XBP1 or CD138 peptide. Peptide-pulsed APC were washed, counted, irradiated at 10 Gy and used to prime CD3^+ T cells at a 1:40 T2/peptide (stimulator)-to-CD3^+ T cell (responder) ratio in AIM-V medium supplemented with 10% human AB serum (BioWhittaker, Walkersville, Md.). The T cell cultures were restimulated every seven days with irradiated APC/peptide for a total of 4 cycles to generate XBP1 peptide-specific CTL (XBP1-CTL), CD138 peptide-specific CTL (CD138-CTL), or CS1 peptide-specific CTL (CS1-CTL). It is clear from the foregoing that “XBP1-CTL,” “CD138-CTL,” and “CS1-CTL” referred to herein are not clonal (or homogenous) populations. Rather, the XBP1-CTL, CD138-CTL, and CS1-CTL cells are heterogenous populations of lymphocytes comprising XBP1 peptide-, CD138 peptide-, or CS1 peptide-specific CTL along with non-specific CTL, APCs, and other lymphocytes obtained from the normal donors. 50 U/ml of interleukin-2 (IL-2) was added to the cultures two days after the second stimulation. Control T cell cultures (unstimulated with peptide) were maintained in AIM-V medium supplemented with 10% human AB serum containing 50 U/ml IL-2.
To determine the phenotype of the XBP1-CTL, CD4, or CD8 expression by the cells was detected using anti-CD4-PE or anti-CD8-FITC mouse anti-human mAbs. In addition, a variety of other expression markers were detected on the cells using combinations of either FITC-conjugated anti-CD69/PE-conjugated-anti-CD45RO or FITC-conjugated anti-CD45RA-FITC/PE-conjugated anti-CCR7 mouse anti-human mAbs. Alternatively, HLA-A2 expression by U266, McCAR, ML-2 and MM1S cells was determined using an FITC-conjugated anti-HLA-A2 anti-human mAb. After contacting the cells with antibodies for 15 minutes at 4° C., the cells were washed and analyzed using a FACSort™ flow cytometer with CellQuest v2.1 software (Becton Dickinson).
Cytotoxic T lymphocytes (CTL) are defined phenotypically by the expression of distinct cell surface antigens (e.g., CD8). Cell surface antigens can also be used to further define CTL as naïve or activated memory cells. For example, naïve humanCTL can be identified by the presence of CD45RA^+/CCR7^+, whereas activated human memory cells can be identified as CD69^+/CD45RO^+. Flow cytometry was performed on populations of human T cells stimulated with the heteroclitic peptides to determine the percentage of CTL that were naïve or activated memory cells. […] The unstimulated control T cells or CD138-CTL were further examined for naïve (CD45RA^+/CCR7^+) or activated memory (CD69^+/CD45RO^+) cell status.

[2] = target: T1, HLA-A2 molecules on the surface of human T2 cells (Homo sapiens, UniProt P04439, D140Y/D185E/D98H/E176V/E277Q/G131W/G231S/I119V/I121R/I166T/I218V/L300P/L318F/N151K/N90K/P208A/P217A/Q86G/Q94H/R138H/R169H/T345S); type: binding; conditions: non-spliced XBP1 peptides (FIG. 1), 50 μg/ml peptide (30 μg/ml influenza peptide), overnight
CD8+ T cells = experiment: Expansion of P2 peptide-specific CS1-CTL (HLA-A*0201 P2-tetramer / anti-CD8 flow analysis); type: cell-based, human; conditions: after the fourth re-stimulation with peptide-presenting dendritic cells
[3] = target: T1, HLA-A2 molecules on the surface of human T2 cells; experiment: Peptide stability assay (peptide/HLA-A2 binding stability post-Brefeldin A); conditions: for HLA-A2 binding stability (HLA-A2 up-regulation on T2 cells) versus native counterpart: spliced XBP1 heteroclitic peptides (FIG. 4)
McCAR cells = experiment: CTL proliferation by CFSE tracking, stimulation with McCAR cells; type: cell-based, human; conditions: cultured with McCAR cells, day 4
Protocol: XBP1-CTL or CD138-CTL were washed twice in PBS (Gibco-BRL) and resuspended in RPMI-1640 culture medium at a concentration of 1×10^6 cells/ml. CFSE (Molecular Probes, Eugene, Oreg.) in the form of a 5 mM stock solution in DMSO was added to the CTL to give a final concentration of 5 μM and incubated for 10 minutes at 37° C. in a CO2 incubator protected from light. After incubation, a volume of ice-cold PBS (containing 2% FCS) equivalent to five-times the volume of the CTL cells was added to the cells to quench the reaction. Cells were incubated for 5 minutes on ice, centrifuged and resuspended in fresh PBS (containing 2% FCS) after a total of three washings. CFSE-labeled T cells were adjusted to a concentration of 2×10^6 cells/ml with RPMI culture medium, stimulated with 2×10^5 cells/ml McCAR cells, ML-2 cells, MM1S cells, or no cells. The stimulated CFSE-labeled cells were examined on by FFC analysis day 4.
XBP1-CTL were exposed to carboxyfluoroscein succinimidyl ester (CFSE) as described above. Proliferation of the XBP1-CTL in response to stimulation with various tumor lines was determined by measuring the amount of CFSE in the cells. CFSE is a membrane permeable dye, which is taken up by cells. […] Thus, the number of cell divisions can be determined as the inverse of the concentration of dye in each cell of a population.

GLVGLIFAV (listed as Homo sapiens) [CD138 #2p, native CD138 peptide]
percentage of CD8+ T cells [1]: 82%
percentage of CD4+ T cells [1]: 15%

ILAVLTLQI (listed as Homo sapiens) [XBP1189-197, native non-spliced XBP1 peptide]
affinity for HLA-A2, HLA-A2-mean fluorescence intensity (MFI) [2]: significant affinity for HLA-A2 affinity, although less than that of XBP1184-192

KLLLENQLL (listed as Homo sapiens) [XBP1110-118, native non-spliced XBP1 peptide]
affinity for HLA-A2, HLA-A2-mean fluorescence intensity (MFI) [2]: significant affinity for HLA-A2 affinity, although less than that of XBP1184-192

LLREKTHGL (listed as Homo sapiens) [XBP1117-125, native non-spliced XBP1 peptide]
affinity for HLA-A2, HLA-A2-mean fluorescence intensity (MFI) [2]: significant affinity for HLA-A2 affinity, although less than that of XBP1184-192

RMSELEQQV (listed as Homo sapiens) [XBP193-101, native non-spliced XBP1 peptide]
affinity for HLA-A2, HLA-A2-mean fluorescence intensity (MFI) [2]: significant affinity for HLA-A2 affinity, although less than that of XBP1184-192

SLFVLGLFL (listed as Homo sapiens) [P2, native CS1 peptide]
percentage of cells bound by both HLA-A*0201 P2-tetramer and anti-CD8 antibody (CD8+ T cells): Approximately 4.1%

VLTLQIQSL (ILAVLTLQI; listed as Homo sapiens) [XBP1192-200, native non-spliced XBP1 peptide]
affinity for HLA-A2, HLA-A2-mean fluorescence intensity (MFI) [2]: significant affinity for HLA-A2 affinity, although less than that of XBP1184-192

YILDNLDPV (listed as Influenza virus) [heteroclitic peptide derived from native spliced XBP1 #1p]
HLA-A2 binding stability (HLA-A2 up-regulation on T2 cells) versus native counterpart [3]: did not exhibit a significant increase in HLA-A2 stability over its native counterpart

YLFPQLISV (listed as Homo sapiens) [SP XBP1 #3M, heteroclitic spliced XBP1 367-375 peptide]
time for which higher level of HLA-A2 up-regulation was maintained ([3]; in Brefeldin A after removing unbound peptide (FIG. 4)): 6 h
HLA-A2 binding stability (HLA-A2 up-regulation on T2 cells) versus native counterpart [3]: increase in HLA-A2 up-regulation on T2 cells
percentage of CD69+/CD45RO+ (activated memory) cells ([1]; control T cells 4%): 64%
percentage of CD8+ T cells [1]: 75%
percentage of CD4+ T cells [1]: 18%
CTL proliferation (M1 gated, CFSE) (McCAR cells): 42%
